According to publication PMC9701387, “CDH17 nanobodies facilitate rapid imaging of gastric cancer and efficient delivery of immunotoxin” (Biomaterials Research, 2022):

B1: E8 nanobody (VHH)
VHH: AVQLVESGGGLVQPGGSLRLSCTASGSILSFNSMGWHRQAPGRQRELVAGISIHKTSSNYANFVKGRFTISRDDAKNTVYLQMNSLKPEDTAVYYCAAVQRGQSRISYWGQGTQVTVSS
notes: from a naive alpaca VHH phage library; shorter CDR3 than A1; HA tag joined to the C-terminus by a GA linker; a cysteine is attached at the end of the HA tag; The purified protein was confirmed with His tag and HA tag antibodies; also called CDH17 nanobody E8; naked E8 nanobody; source: E. coli (pColdII vector), purified (Ni-NTA); not shown: HA, C-terminal, kept
B2: A1 nanobody (VHH)
VHH: AVQLVESGGGLVQAGDSLRLSCAASGRTFSSNGMGWFRQAPGKGREFVAAISWNAGTTLYTDSVKGRFTISRDNAKNTVYLQMNSLKPEDTAIYYCAAREYYGGSYYPSREYEYGYWGQGTQVTVSS
notes: from a naive alpaca VHH phage library; HA tag joined to the C-terminus by a GA linker; a cysteine is attached at the end of the HA tag; The purified protein was confirmed with His tag and HA tag antibodies; also called CDH17 nanobody A1; source: E. coli (pColdII vector), purified (Ni-NTA); not shown: HA, C-terminal, kept
B3: CDH17 domain 1-3 (human), recombinant (domain or fragment)
chain: QEGKFSGPLKPMTFSIYEGQEPSQIIFQFKANPPAVTFELTGETDNIFVIEREGLLYYNRALDRETRSTHNLQVAALDANGIIVEGPVPITIKVKDINDNRPTFLQSKYEGSVRQNSRPGKPFLYVNATDLDDPATPNGQLYYQIVIQLPMINNVMYFQINNKTGAISLTREGSQELNPAKNPSYNLVISVKDMGGQSENSFSDTTSVDIIVTENIWKAPKPVEMVENSTDPHPIKITQVRWNDPGAQYSLVDKEKLPRFPFSIDQEGDIYVTQPLDREEKDAYVFYAVAKDEYGKPLSYPLEIHVKVKDINDNPPTC
notes: Cadherin-17 (CDH17, LI-cadherin), human, extracellular cadherin domains 1-3; soluble protein of about 40 kD; the supplementary methods (Additional file 1) may hold them; also called extracellular domain 1-3 of CDH17; CDH17 protein; source: E. coli BL21 (DE3), purified (Ni-NTA, Superdex gel filtration)

Tests used:
[1] = target: B3; test: SPR; format and conditions not told in the text shown; conditions: both partners purified
[2] = target: E8-PE38 immunotoxin (alpaca (Lama pacos) | Pseudomonas …); test: as above; conditions: both partners purified

## B1
[1]
  Kd: 70.3 nM

## B2
[1]
  Kd: 377 nM

## B3
[2]
  Kd: 86.9 nM
